{
  "source": "paper PMC12990809",
  "experiment_in_all_cases": "pulldown",
  "key": {"[1]": {"test_system": "T1, ENSMODG00000011903 (Monodelphis domestica)", "T1 sequence": "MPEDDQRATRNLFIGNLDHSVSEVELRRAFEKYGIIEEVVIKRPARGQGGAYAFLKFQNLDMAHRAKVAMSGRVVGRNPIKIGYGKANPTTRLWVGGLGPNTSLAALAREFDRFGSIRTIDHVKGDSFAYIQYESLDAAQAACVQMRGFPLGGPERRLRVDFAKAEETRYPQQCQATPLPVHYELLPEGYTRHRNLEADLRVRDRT", "details": "20 nM protein, 1.5 uM RNA pool; 20 mM HEPES pH 7.8, 70 mM KCl, 10 mM NaCl, 10% glycerol, 2 mM DTT, 0.1 ug/uL BSA; 30 min, 4 C"}, "[2]": {"molecular_target": "T2, PK21582.1 S73F;V173L (Cannabis sativa) (UniProt A0A7J6HF55)", "T2 sequence": "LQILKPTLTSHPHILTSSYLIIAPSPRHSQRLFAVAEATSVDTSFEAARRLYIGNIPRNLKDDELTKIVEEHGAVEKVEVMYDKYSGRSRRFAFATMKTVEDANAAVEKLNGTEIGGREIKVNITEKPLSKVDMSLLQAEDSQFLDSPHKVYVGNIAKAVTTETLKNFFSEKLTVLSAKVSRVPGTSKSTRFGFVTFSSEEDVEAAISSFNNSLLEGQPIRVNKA", "details": "20 nM protein, 1.5 uM RNA pool; 20 mM HEPES pH 7.8, 70 mM KCl, 10 mM NaCl, 10% glycerol, 2 mM DTT, 0.1 ug/uL BSA; 30 min, 4 C"}, "KHDRBS3 (Homo sapiens)": {"molecular_target": "T3, KHDRBS3 (Homo sapiens) (UniProt O75525)", "T3 sequence": "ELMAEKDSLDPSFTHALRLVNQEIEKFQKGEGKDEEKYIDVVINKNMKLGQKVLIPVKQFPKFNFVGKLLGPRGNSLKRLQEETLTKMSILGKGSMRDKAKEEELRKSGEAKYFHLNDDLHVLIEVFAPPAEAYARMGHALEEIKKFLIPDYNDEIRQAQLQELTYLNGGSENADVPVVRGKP", "details": "20 nM protein, 1.5 uM RNA pool; 20 mM HEPES pH 7.8, 70 mM KCl, 10 mM NaCl, 10% glycerol, 2 mM DTT, 0.1 ug/uL BSA; 30 min, 4 C (protocol of this paper; not …); cited from earlier work"}, "[3]": {"molecular_target": "lark (Drosophila melanogaster) (UniProt Q94901)", "sequence (Q94901 1-207)": "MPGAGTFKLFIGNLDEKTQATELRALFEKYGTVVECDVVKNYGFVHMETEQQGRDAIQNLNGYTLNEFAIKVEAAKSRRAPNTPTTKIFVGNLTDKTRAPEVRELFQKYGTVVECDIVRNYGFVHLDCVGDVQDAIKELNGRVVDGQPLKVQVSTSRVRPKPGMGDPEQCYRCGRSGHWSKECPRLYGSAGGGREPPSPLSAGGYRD", "details": "20 nM protein, 1.5 uM RNA pool; 20 mM HEPES pH 7.8, 70 mM KCl, 10 mM NaCl, 10% glycerol, 2 mM DTT, 0.1 ug/uL BSA; 30 min, 4 C (protocol of this paper; not …); cited from earlier work"}, "[4]": {"molecular_target": "T4, LmjF.30.1110 (Leishmania major) (UniProt Q4Q7J2)", "T4 sequence": "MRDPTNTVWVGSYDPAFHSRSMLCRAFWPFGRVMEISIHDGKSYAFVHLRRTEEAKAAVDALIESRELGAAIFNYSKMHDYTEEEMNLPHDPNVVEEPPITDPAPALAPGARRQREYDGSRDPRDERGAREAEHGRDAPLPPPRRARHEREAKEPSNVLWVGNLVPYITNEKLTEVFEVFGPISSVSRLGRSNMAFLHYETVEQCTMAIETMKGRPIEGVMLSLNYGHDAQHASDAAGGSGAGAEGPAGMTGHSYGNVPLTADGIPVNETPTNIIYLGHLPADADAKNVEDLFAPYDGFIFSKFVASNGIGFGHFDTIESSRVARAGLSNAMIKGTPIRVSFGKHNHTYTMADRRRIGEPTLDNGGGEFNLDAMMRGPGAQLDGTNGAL", "details": "20 nM protein, 1.5 uM RNA pool; 20 mM HEPES pH 7.8, 70 mM KCl, 10 mM NaCl, 10% glycerol, 2 mM DTT, 0.1 ug/uL BSA; 30 min, 4 C"}, "[5]": {"molecular_target": "T5, ENSGALG00000014089 (Gallus gallus) (UniProt A0A8V0XZS6)", "T5 sequence": "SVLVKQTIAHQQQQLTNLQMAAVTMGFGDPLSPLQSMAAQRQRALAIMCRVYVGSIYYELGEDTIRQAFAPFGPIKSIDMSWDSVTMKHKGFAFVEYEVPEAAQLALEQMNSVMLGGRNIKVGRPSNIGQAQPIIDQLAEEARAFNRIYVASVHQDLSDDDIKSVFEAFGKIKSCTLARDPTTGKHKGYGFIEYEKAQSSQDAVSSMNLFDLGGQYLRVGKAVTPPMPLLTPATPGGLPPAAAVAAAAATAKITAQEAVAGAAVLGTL", "details": "20 nM protein, 1.5 uM RNA pool; 20 mM HEPES pH 7.8, 70 mM KCl, 10 mM NaCl, 10% glycerol, 2 mM DTT, 0.1 ug/uL BSA; 30 min, 4 C"}, "[6]": {"molecular_target": "T6, NCU00707 (Neurospora crassa) (UniProt Q7SET9)", "T6 sequence": "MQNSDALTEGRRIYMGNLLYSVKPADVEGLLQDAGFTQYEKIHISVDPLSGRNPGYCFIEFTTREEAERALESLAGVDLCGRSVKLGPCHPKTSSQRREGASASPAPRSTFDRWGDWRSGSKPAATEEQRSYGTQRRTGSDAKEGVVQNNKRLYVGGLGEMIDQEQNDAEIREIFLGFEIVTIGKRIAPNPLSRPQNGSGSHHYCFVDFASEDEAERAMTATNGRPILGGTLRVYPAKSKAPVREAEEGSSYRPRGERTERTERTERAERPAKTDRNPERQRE", "details": "20 nM protein, 1.5 uM RNA pool; 20 mM HEPES pH 7.8, 70 mM KCl, 10 mM NaCl, 10% glycerol, 2 mM DTT, 0.1 ug/uL BSA; 30 min, 4 C"}, "[7]": {"molecular_target": "T7, Tb927.7.320 T9S (Trypanosoma brucei) (UniProt Q57U22)", "T7 sequence": "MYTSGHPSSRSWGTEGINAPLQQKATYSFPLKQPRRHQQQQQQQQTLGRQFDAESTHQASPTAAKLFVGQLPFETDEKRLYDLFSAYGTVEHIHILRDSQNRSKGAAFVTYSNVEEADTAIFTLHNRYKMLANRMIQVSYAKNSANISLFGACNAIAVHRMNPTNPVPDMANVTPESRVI", "details": "20 nM protein, 1.5 uM RNA pool; 20 mM HEPES pH 7.8, 70 mM KCl, 10 mM NaCl, 10% glycerol, 2 mM DTT, 0.1 ug/uL BSA; 30 min, 4 C"}, "[8]": {"molecular_target": "T8, LmjF.29.1370 (Leishmania major) (UniProt E9ADZ6)", "T8 sequence": "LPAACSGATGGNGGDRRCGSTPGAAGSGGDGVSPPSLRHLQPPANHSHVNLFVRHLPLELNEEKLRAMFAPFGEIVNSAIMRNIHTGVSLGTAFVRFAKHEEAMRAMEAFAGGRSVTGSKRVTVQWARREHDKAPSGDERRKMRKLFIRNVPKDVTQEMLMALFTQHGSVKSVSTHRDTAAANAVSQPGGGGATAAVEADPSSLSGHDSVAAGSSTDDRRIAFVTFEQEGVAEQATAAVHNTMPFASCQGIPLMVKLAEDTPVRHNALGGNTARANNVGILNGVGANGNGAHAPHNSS", "details": "20 nM protein, 1.5 uM RNA pool; 20 mM HEPES pH 7.8, 70 mM KCl, 10 mM NaCl, 10% glycerol, 2 mM DTT, 0.1 ug/uL BSA; 30 min, 4 C"}},
  "data": [
    {"substance": "UUUUUUG [RNAcompete motif RNCMPT00758]", "values": [
      {"measurement": "binding signal (z-score (mean of top ten 7-mers))", "setting": "[1]", "value": 7.84}
    ]},
    {"substance": "ANUGGAA [RNAcompete motif RNCMPT00792]", "values": [
      {"measurement": "binding signal (z-score (mean of top ten 7-mers))", "setting": "[2]", "value": 10.3}
    ]},
    {"substance": "GAUAAAC [RNAcompete motif RNCMPT00034]", "values": [
      {"measurement": "binding signal (z-score (mean of top ten 7-mers))", "setting": "KHDRBS3 (Homo sapiens)", "value": 9.52}
    ]},
    {"substance": "UCGCGCG [RNAcompete motif RNCMPT00097]", "values": [
      {"measurement": "binding signal (z-score (mean of top ten 7-mers))", "setting": "[3]", "value": 15.5}
    ]},
    {"substance": "AUGAUG [RNAcompete motif RNCMPT00763]", "values": [
      {"measurement": "binding signal (z-score (mean of top ten 7-mers))", "setting": "[4]", "value": 10.7}
    ]},
    {"substance": "UUUUUUU [RNAcompete motif RNCMPT00760]", "values": [
      {"measurement": "binding signal (z-score (mean of top ten 7-mers))", "setting": "[5]", "value": 11.4}
    ]},
    {"substance": "UUAUGA [RNAcompete motif RNCMPT00768]", "values": [
      {"measurement": "binding signal (z-score (mean of top ten 7-mers))", "setting": "[6]", "value": 7.83}
    ]},
    {"substance": "UUUGCUU [RNAcompete motif RNCMPT00751]", "values": [
      {"measurement": "binding signal (z-score (mean of top ten 7-mers))", "setting": "[7]", "value": 12.5}
    ]},
    {"substance": "CAUAGU [RNAcompete motif RNCMPT00762]", "values": [
      {"measurement": "binding signal (z-score (mean of top ten 7-mers))", "setting": "[8]", "value": 29.8}
    ]}
  ]
}
